In patent US20160106861A1, “AXL ANTIBODY-DRUG CONJUGATE AND ITS USE FOR THE TREATMENT OF CANCER” (PIERRE FABRE MEDICAMENT, priority 2013, published 2016):

Target: T1, rhAxl-Fc protein (Homo sapiens, UniProt P30530)
T1 construct: purchased R and D Systems 154AL/CF
T1 sequence (P30530 26-451 limits assumed): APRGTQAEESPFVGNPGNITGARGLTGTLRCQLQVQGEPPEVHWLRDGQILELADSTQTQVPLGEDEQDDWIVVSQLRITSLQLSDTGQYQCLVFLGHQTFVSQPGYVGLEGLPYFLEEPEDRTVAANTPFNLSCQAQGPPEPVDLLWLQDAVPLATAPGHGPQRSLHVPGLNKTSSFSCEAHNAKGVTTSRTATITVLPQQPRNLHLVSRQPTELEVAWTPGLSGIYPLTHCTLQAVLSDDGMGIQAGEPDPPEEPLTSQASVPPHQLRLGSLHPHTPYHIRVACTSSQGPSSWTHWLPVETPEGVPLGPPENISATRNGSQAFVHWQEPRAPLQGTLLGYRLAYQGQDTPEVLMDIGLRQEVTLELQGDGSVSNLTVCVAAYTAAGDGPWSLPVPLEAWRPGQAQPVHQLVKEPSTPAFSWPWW
Assay: ELISA with coated 1613F12 and a range of rhAxl-Fc protein (hz vs. m)
Assay type: binding
Settings: FIG. 3
Procedure: In this assay, 96 well plates (Immulon II, Thermo Fisher) were coated with a 5 μg/ml of 1613F12 solution in 1×PBS, overnight at 4° C. After a saturation step, a range of rh Axl-Fc protein (R and D Systems, ref: 154-AL) is incubated for 1 hour at 37° C. on the coated plates. For the revelation step, a biotinylated-Axl antibody (in house product) was added at 0.85 μg/ml for 1 hour at 37° C. This Axl antibody belongs to a distinct epitopic group. Then an avidin-horseradish peroxidase solution at 1/2000° in diluent buffer is added to the wells. Then the TMB substrate solution is added for 5 min. After addition of the peroxydase stop solution, the absorbance at […] was measured with a microplate reader.

- binding of rhAxl-Fc protein, murine versus humanized version: bind similarly the rhAxl-Fc protein
B1: hz1613F12: humanized Axl antibody 1613F12 (antibody, V domains shown)
VH: QVQLVQSGAEVKKPGASVKVSCKASGFNIRDTYMHWVRQAPGQGLEWMGRLDPANGHTKYAQKFQGRVTMTRDTSISTAYMELSRLRSDDTAVYYCARGAYYYGSSGLFYFDYWGQGTLVTVSS
VL: DVQMTQSPSSLSASVGDRVTITCRASKSISKYLAWYQQKPGKVPKLLIYSGSTLQSGVPSRFSGSGSGTDFTLTISSLQPEDVATYYCQQHHEYPLTFGGGTKVEIK
modifications: Hz1613F12 VH - Consensus 2; Hz1613F12 VL - Consensus 2
notes: humanized Axl antibody 1613F12
